Test: label from the status in PepcDB records

| Sequence | protein production |
| --- | --- |
| MSEGNRSRSRLLPSLLGLLILLSGLALLAGGIKLASLGGSLYYLLAGIGLALSGLLLLLGKRAALGLYALVLFASTVWALWEVGLDWWQLVPRLALWFVFGLLLWLPWFRRPLLADGPAPLGTAALGVAVVLAGAAAVGSQFTNPGQIVGRIDRDSGMTSTAPAMPDGDWQAYGRTEFGDRYSPLKQITPANVGQLEEAWRIRTGDLPTADDPLELTNENTPLKVNGMLYACTAHSKVLALDPDTGAEIWRFDPQIQSPVGFKGFAHMTCRGVSYYDEEQYARSDVGAPPAALSEAGKAVAASCPRRLFLPTADARLIAINADNGKVCEDFGVKGAVDLTAGIGPFTPGGYYSTSPAAVTRNLVIIGGHVTDNESTNEPSGVIRAFDVHDGKLVWNWDSGNPDETEPLAPGKFYTRNSPNMWSLASVDEKLGQVYLPLGNQMPDQWGGNRTPGAEKFSAGLVALDLNTGKLRWNYQFTHHDLWDMDVGSQPTLLDLKTADGVKPALIAPTKQGSLYVLDRRDGTPIVPIREVPAPQGAVEGDHTAPTQARSDLNLLRPPLTERDMWGSSPFDQMLCRIQFRSLRYEGQYTPPSEQGSLIYPGNVGVFNWGGVSVDPVRQILFTSPNYMAFVSQMVPRDKVPSGSKREGETSGVQPNTGAPYAVIMHPFMSPIGLPCQAPSWGDVAGIDLTTAKVVWQHKNGTSRDNTPVPIGLTVGVPSMGGSITTAGGVAFLSGTLDQYLRAYDVKDGKQLWQARLPAGGQATPMSYTGKDGRQYVLIVAGGHGSFGTRMGDYIIAYALPRQ | failed |
| MSLLHIAVLLPLIFALIIPFLYRFVKRIHLGWFVLPVPIVLFIYFISLISMTMSGNNVMKNLNWMPHIGMNFNLYVDGLGLLFSLLITGIGSLVVLYSIGYLSKSEQLGNFYCYLLLFMGAMLGVVLSDNFIILYLFWELTSFSSFLLISFWREKKASIYGAQKSLIITVLGGLSMLGGIILLSLATDTFSIQAMISKASDIQNSPFFILVMILFMIGAFTKSAQVPFYIWLPDAMEAPTPVSAYLHSATMVKAGLYLIARITPIFAISEGWVWTITLVGLITLFWASLNATKQHDLKGILAFSTVSQLGMIMSMLGIGAVSYHYQGANSQLYVAGFVAAIFHLINHATFKGALFMITGGIDHSTGTRDVKKLGGLLTIMPISFTLTVITTLSMAGVPPFNGFLSKEKFLESMINVTHLNLMSLNTLGILLPIIAIIGSIFTFVYSIKFILHIFFGSYKPEALPKQAHESSILMLISPIILTSLVIVFGLFPSILTQSIIEPASVAVSQTSNITAEFHLFHGITPAFLSTIGIYIIGILLLISFSYWVRLLQAHPYQLTLNHWYDTSGQRIPGYSENITNSYVTGFSRNNLVIILGILIALTFVTVISVPFSIDFKNVSHLRVFEGATVLFLLIASTFIIFAKSRLFSIIMLSAVGYAISVLFIFFKAPDLALTQFVVESISTALFLLCFYHLPNLNRYNEKPTFKLTNAVISIGVGLSVIILGLIGYGNRHFDSITKFYQEHVFDLAHGKNMVNVILVDFRGMDTLFESSVLGIAGLGVYTMIKLRLKQKNQSSEVNDHE | failed |
| MTKTWEQLSAIQPIGVKMLMNSIAKERISHAYLLEGEKGTGKFATAIQMAKSFLCSQRNRVEPCHVCTNCKRIDSGNHPNLHIVKPDGLSIKKQQIHDLQEEFSKTGLEANKKVYIIEHADRMTANAANALLKFLEEPSSDTTAILLTEQSHQILNTILSRCQVVTFRPLPTESLIRRLQDEGITVSLSTLAAQLTNSFDEALTLCNDEWFAQARALVIKLCEALEKDKASIFFVQEKWGKHFGEKEQLQQGLDMLLLIYKDLLYVQLGEEDRLVFREQKEMFESFSYAQKRIVSALFNILEAKNRINANVNAQLVFEQLVLRLQEG | failed |
| VIRDLQKLLASMEPSLNPGTYAFVVAPADIQIPQDQIVASVCEPEGQSLVIPEQLAHERGLPVTYSAAWITLTVHSDLAAVGLTATFAGALGQAGISCNVIAGVHHDHLFVPADQAQQAMAVLFDLQRAAA | failed |
| MDLPVDEWKSYLLQKWASLPTSVQVTISTAETLRDIFLHSSSLLQPEDELFLKRLSKGYLVGKDSDAPLFYREEGNKKFQEKDYTGAAVLYSKGVSHSRPNTEDMSLCHANRSAALFHLGQYETCLKDINIAQTHGYPERLQPKIMLRKAECLVALGRLQEASQTISDLERNFTATPALADVLPQTLQRNLHRLKMKMQEKDSLTESFPAALAKTLEDAALREENEQLSNASSSIGLCVDPLKGRCLVATKDILPGELLVQEDAFVSVLNPGELPPPHHGLDSKWDTRVTNGDLYCHRCLKHTLATVPCDGCSYAKYCSQECLQQAWELYHRTECPLGGLLLTLGVFCHIALRLTLLVGFEDVRKIITKLCDKISNKDICLPESNNQVKTLNYGLGESEKNGNIVETPIPGCDINGKYENNYNAVFNLLPHTENHSPEHKFLCALCVSALCRQLEAASLQAIPTERIVNSSQLKAAVTPELCPDVTIWGVAMLRHMLQLQCNAQAMTTIQHTGPKGSIVTDSRQVRLATGIFPVISLLNHSCSPNTSVSFISTVATIRASQRIRKGQEILHCYGPHKSRMGVAERQQKLRSQYFFDCACPACQTEAHRMAAGPRWEAFCCNSCGAPMQGDDVLRCGSRSCAESAVSRDHLVSRLQDLQQQVRVAQKLLRDGELERAVQRLSGCQRDAESFLWAEHAVVGEIADGLARACAALGDWQKSATHLQRSLCVVEVRHGPSSVEMGHELFKLAQIFFNGFAVPEALSTIQKAEEVLSLHCGPWDDEIQELQKMKSCLLDLPPTPVGPAL | failed |
| MNEKVYYFIKSYDDSLPMPPAESFGQILNETYLHPFDWSARTTRKSYWWSVLINFILSILCIVLGFYAFNKNINPGIRVIDAVVAIVVYLWVFLAGLGQMVRRLHDVGYSGYWYWSTFTGYGTMFLFYLALQPSAQRKVKWGKYLFSDQDYPEGKKEKVPVPTIGQILKEHFFDCFNWDARSTRTSFWVGTAINQVVMVIGVLACYLIAFLLFLPFRVTGLNSDDSKVIAVFFIIFLIFFAAVTIWAFLAQLGHTVRRLHDAGFNGGWWWLSVIPYVGQLLLAFLLFHPTVKNEVKWNKYLFDPEDRIR | failed |
| MLETVAGVTIGASCIILTIALTKKLGPEWAWINRKLIHLSIIPAALFFYYGIIPREIFSPAAALFGIAQLLAHVKNRELNWYQLKQNYGEVFFAFSASFITFVFPRDYASALLLVMAISDGVTGIIRHYYFKRNGFNVKLKKHWTGSLGYIITAIIIAVAFLDGNIIEKVGWAFILMLAEYQPWIDDNLAVPLVGSALYFLY | failed |
| MSLGKRMGAELIGTFWLVLGGCGSAVLAASSPLGIGVLGVAFAFGLTVLTMAFAIGHISGCHLNPAVSFGLVVGGRFPAKELLPYVIAQVIGAILAAGVIYLIASGKAGFELSAGLASNGYADHSPGGYTLGAGFVSEVVMTAMFLVVIMGATDARAPAGFAPIAIGLALTLIHLISIPVTNTSVNPARSTGPALFVGGWALQQLWLFWVAPLIGAAIGGALYRGLAKEP | failed |
| MNESAGGRTPVPPAAWVFGLSTLIPFFIASGLFCYGPVAIRKSALLGLLAYSAAMVSYFGGVRTGLEIENPSPRWSVLGISLLFPLAGFGLLLGGLKFEAAWQLSGFLLVFLLQWVWDVTDHEGPSWRPRMRTLMTAGAAISLAFALEQALHM | failed |
| MAKYQSMLVVIDPNQDDQPALRRAVYLHQRIGGRIKAFLPIYDFSYEMTTLLSPDERTAMRQGVIAQRTAWIREQAKFYLESGVPIDVKVVWHNRPFEAIIQEVVSEKHDLLLKMAHQHDKLEAVIFTPTDWHLLRKCPCPVWMVKDQPWPEGGKALVAVNLASEENYHNTLNEKLVRETLSLAEEVNHTEVHLIGAYPVTPINIAIELPDFDPSVYNDAIRGQHLLAMKALRQKFGIDEKFTHVEKGLPEEVIPDLAEHLQAGIVVLGTVGRTGLSAAFLGNTAEQVVDHLRCDLLVLKPEAYQTPVELDDDDDD | failed |
| MRLSRGVFLLLLLLALASPLMIVGCGGPSFLPAASLRDPSVDMAWPPAPNPARIRFLREISGPEQVKAEPGAIARFLEFVTGEQFKHVPFVTPYGVVSDGGTLLFVSDSSSGVVHRIDLARQKVSYIVRAGDEFLSSPVGLALSPSGDLYVSDSVNAKVYVFSRDGEFLRVLADGQVDFKRPAGLAVNSKGVLFVVDVLAHKLKVFNVSGRFLGDFPPDDIGGKLNLPSHVAVDKDDKVYVTDALNFTVKVYDSARRYLRSIGEIGDAPGSFARPRGVAVDSDLNVYVIDAAFDNFQIFNQEGQLLLFVGKPGKKSGEFYMPSGIHIDRNDRIFISDSYNRRVQVFEYLKEENR | failed |

From a protein production outcome set (Wang et al. 2014)
